The results in this text go back to a protein production outcome set (Wang et al. 2014).
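Note: failed if final PepcDB status was selected cloned or expressed and not failed if soluble or beyond.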

This data set can be described thus: label from the status in PepcDB records.
As for “MSASVVCVVGNPNCGKTTLFNALTGGRQSVGNWPGVTVEKKVGAYRHGGEAVTIVDLPGVYSLTPTSSSSEDERVARDYILSGEAGLVLNIVDASNLERNLYLTAQLLEMRVPMVVIVNMMDIAASRHLDIDIDALSKSLDCKVVPMVASRRRGLDDLREVIAQSMGRTTPPAASAPYPPAVSEAVGRIAATLPADSRADRRWTALQLLEGDSTLLRDLPPATALALESDLKQAAQSGTEDFDILIADARYGFVGAIALGAVIRKGQMSRTLTDRIDKVVLHRVLGIPIFLAMMYLMFVFTINVGGAFIDFFDQFAGTLFVDGFGHLLGGAGAPDWLTALLAKGVGGGVQTVATFIPVIGFLYLFLSVLEDSGYMARAAFVMDRFMRGIGLPGKAFVPLIVGFGCNVPAVMATRTMDSRRDRLITVMMAPFMSCGARLPVYVLFAAAFFPSGGQNLVFALYLIGILVAIATGLLLKTTALRGEASPFVMEMPPYHLPTVAGILLRTWDRLKSFILRAGKLVVAVVVVLSFLNSWGTDGSFGNEDTDKSVLAAIGKAIVPVFAPMGISEENWPATVGVFTGIFAKEAVVGTLDALYGTIAEGNAAAAQAEADPEAAATEEPEAFDLWGGLAGAFATIPANLSNVAGALADPLGIEVGDLSDRSAVAADQEISTSSIDAIALLFDGAIGAFAYLLMVLLYMPCVAAVSAIWREVGTRWTLFAAAWTTGMGYGAAVLTYQIGTFSRHPVSSAVDIAVVLAVLAAAIALLRLAGRGSAEAGPISAGQTAS”, the protein production entry is on record as “failed”.

With “MSATLKDYLNKRVVIIKVDGECLIASLNGFDKNTNLFITNVFNRISKEFICKAQLLRGSEIALVGLIDAENDDSLAPIDEKKVPMLKDTKNKIENEHVIWEKVYESKTK”, the protein production entry is reported as “failed”. For “MSATTTNLKEAIVNRRSIRKVTKNDAITKERIEEVLKTALHAPTSFNMQSGRMVVLMDGEHEKFWDIVKETLRARVPAENFEATVERLKGFHAGVGTVLFFEDQATVEKMQENAPLYKDQFPFWSHQGNAMLQHTVWMLLSAEGIGASLQHYNPIVDAEVKETWNIPAEWSLVGQMPFGEPNEQPAERTFLPTEDVVKFY”, the protein production entry is “not failed”.

As for “MSAVFSGGLTQAGGMSSTETVDSSAVSSGTISDYVEAMGPSWIAGAIAAGPATIASLVTAGGAFGYSLLWVVVLSAGAGALAQYLAMRLGLLTERGIVAVVEDHLGETWAWLLVGDAVLAAGVAQLVIMKTVATVSATVTGIDARIWGVVWALILAAGLAGGGYRFLELAAKILVLLVVVAFVASLFVVPIDAGAAVAGLVPSVPSGSALVAAGILGGAVHITLITMHSYTMRARGWTREDYDLATVDVGASMLVAFGIYSLAIFLVTASVLTSGDLTTVGAAEALGPLVGDSARWLFLLGLWGAAVSTLGGNTIVPPFLLADKLGWGTTIEDNRYRGLLAAVALLSAPGAFIGGNVLGQLVLVLALGTVGTPFAIALVLYLLNSAAVPESNSLLANVGGLALIAVSGGLAANFVVEQLGGGVGPLSGFVLAFAIALGLAMAGLGGKFLREELLA”, the protein production entry is “failed”.

In the case of “MSCVDKGFSPYISLLISGLTVVFDQVIKWQTQQSIAYGDSISLTPFFNWVHTWNTGAAFGLLSNGGGWQRYFFIGVALLMSVALTRLIFNKVSKRDGISYGLILGGAVGNLIDRLFRGYVVDSLHLGWQTWQLPVFNIADIAITLGVILLLLSNLQVSMIPNLPGSK”, the protein production entry is on record as “failed”. The same measure for “MSDAEQPAESETHDHHDHDHEGPGYATPQAAIEAAEPEQTAYVMGLHVGQDVDAPDFLAVVDLDPDSDTYSEIINRVQMPNKGDELHHFGWNACSSSCHMDGLERRHLVIPGQRSSRIHIVDTKERRDPELTKVIEPEEVYEHDLSAPHTVHCIPDGEILISMLGDADGDLPGGFLELNDDFEVQGRWDPPGEIEMNYDYWYQPRQNVMLSTEWAAPKTYYPGFDLDDVEDGKYGQRLNFWDWEDGVIEQTIDLGEDGLIPLEARFLHTPESTHGYVGAALSSNIIHFHESDGRYHAEPVIEFDDREHEGWDMPVPALVTDILISMDDRYLFGSSWLHGEVWMYDISDPSNPRKADSISIGGYFGDIEQVQGRDIVAGPQMLQLSLDGERLYWTTSLFSSWDNQFFPEEAEKGSVMLKADVDPRTGTMSLDRDFLVDFGDLPEGPARAHEIRWPDGDCTSDVWQ”: “failed”. To “MSDALSAIPAAVHRNLSDKLYEKRKNAALELENIVKNLTSSGDHDKISKVIEMLIKEFAKSPQANHRKGGLIGLAAVTVGLSTEAAQYLEQIVPPVINSFSDQDSRVRYYACEALYNIAKVVRGDFIIFFNKIFDALCKLSADSDANVQSAAHLLDRLVKDIVTESDQFSIEEFIPLLKERMNVLNPYVRQFLVGWITVLDSVPDIDMLGFLPDFLDGLFNMLSDSSHEIRQQADSALSEFLQEIKNSPSVDYGRMAEILVQRAASPDEFTRLTAITWINEFVKLGGDQLVRYYADILGAILPCISDKEEKIRVVARETNEELRSIHVEPSDGFDVGAILSVARRQLSSEFEATRIEALNWISTLLNKHRTEVLCFLNDIFDTLLKALSDSSDDVVLLVLEVHAGVAKDPQHFRQLIVFLVHNFRADNSLLERRGALIVRRMCVLLDAERVYRELSTILEGEDNLDFASTMVQALNLILLTSPELSKLRELLKGSLVNREGKELFVALYTSWCHSPMAIISLCLLAQAYQHASVVIQSLVEEDINVKFLVQLDKLIRLLETPIFTYLRLQLLEPGRYTWLLKTLYGLLMLLPQQSAAFKILRTRLKTVPTYSFSTGNQIGRATSGVPFSQYKHQNEDGDLEDDNINSSHQGINFAVRLQQFENVQNLHRGQARTRVNYSYHSSSSSTSKEVRRSEEQQQQQQQQQQQQQQQQRPPPSSTSSSVADNNRPPSRTSRKGPGQLQL” belongs “not failed”; to “MSDAQDSRVGSMFGPYHLKRLLGRGGMGEVYEAEHTVKEWTVAVKLMTAEFSKDPVFRERMKREARIAGRLQEPHVVPIHDYGEVDGQMFLEMRLVEGTDLDSVLKRFGPLTPPRAVAIITQIASALDAAHADGVMHRDVKPQNILITRDDFAYLVDFGIASATTDEKLTQLGTAVGTWKYMAPERFSNDEVTYRADIYALACVLHECLTGAPPYRADSAGTLVSSHLMGPIPQPSAIRPGIPKAFDAVVARGMAKKPEDRYASAGDLALAAHEALSDPDQDHAADILRRSQESTLPGTAAVTAQPPTMPTVTPPPIQAAPTGQPSWAPNSGPMPASGPTPTPQYYQGGGWGAPPSGGPSPWAQTPRKTNPWPFVAGAAAVVLVLVLGAIGIWIAIRPKPVQPPQPVAEERLSALLLNSSEVNAVMGSSSMQPGKPITSMDSSPVTVSLPDCQGALYTSQDPVYAGTGYTAINGLISSEPGDNYEHWVNQAVVAFPTADKARAFVQTSADKWKNCAGKTVTVTNKAKTYRWTFADVKGSPPTITVIDTQEGAEGWECQRAMSVANNVVVDVNACGYQITNQAGQIAAKIVDKVNKE”, “failed”; to “MSDATNNAVLVRNLSPEVTKQTLLDFFSFCGEISAVKIRPSVGEGGSSSSGSPTEAMEALVIFENQSAKKTALVLDSATLKKRKISVMDATEELVSSFKDVREVDLARDSTDVPETATARQERLQGLREEFDRAIKRASDKLSDFNEKHRITEKVQEFGDLTKRKTQEINEQYRLTERAREGWQTVREKTRELDERLHLSESARDGWRSLKASVSKIMQKDRGGEVDKA”, “not failed”. For “MSDFWENELVEIAAYYSVAVLCLVLFLTVFELVTAYKNWEEIQKGNLAVAMATGGKILGIANVFQHSISQHNSLLQMIGWGVYGFVMLLISYFIFEFLTPRFKIDQEIENDNRAVGFISFVISVGLSFVVAAGI”, the protein production entry was “failed”.

Turning to “MSDHPGPGAVTPELFGVGGDWLAVTAGESGASVFRAADATRYAKCVPAADAAGLEAERDRIAWLSGQGVPGPRVLDWYAGDAGACLVTRAVPGVPADRVGADDLRTAWGAVADAVRRLHEVPVASCPFRRGLDSVVDAARDVVARGAVHPEFLPVEQRLVPPAELLARLTGELARRRDQEAADTVVCHGDLCLPNIVLHPETLEVSGFIDLGRLGAADRHADLALLLANARETWVDEERARFADAAFAERYGIAPDPERLRFYLHLDPLTWG”, the protein production entry is “failed”. To “MSDHRPAARPWANRRRTIMSTTTLPGSTVATLTVTTPSDREVQITRIFDASRPMVFDCWTIPELLKGWLHGPDGWRLAICEIDLRVGGATRYVWQHRDGRSMGMSGAYREIVRPARIVATELFDEDWTGGETVGTVVFTEQAGKTLLTQTVLYASQAARDGALGTGMTRGMGESYAQLDAYLISLQDAAKGAA” belongs “failed”.
